Measurements from paper PMC8836349, “Characterization of adenine phosphoribosyltransferase (APRT) activity in Trypanosoma brucei brucei: Only one of the two isoforms is kinetically active” (PLoS Neglected Tropical Diseases, 2022).

B1: Trypanosoma brucei brucei adenine phosphoribosyltransferase 1 (APRT1, Tb927.7.1780) (enzyme, UniProt Q57V32 1-235, looked up)
chain: MSLVEVLPNYFTLSKDSPLRKKFEKVYKWYSPAFSPHDVPRFAEVGNITENPEVMRGIRDFFVDRYKNLQQPITHILGFDSRGFLLGPMIAVELNVPFVLIRKANKIAGVIIKSEPYTKEYAAESEECMTVRFGSFDKNSRVVLIDDVIATGGTMLAGVQLVDACGATLVEVAGILGLTFLKGTQPAHTFAGGRYSNVPFVTLVDETVLSDENCGDPLHHKGSRIISCAEAKKLI
notes: APRT1 of Trypanosoma brucei brucei, Tb927.7.1780, UniProt Q57V32; the ORF, codon optimised for P. pastoris, cloned into a pPICZ vector; tags were removed with TEV protease (tag-less APRT1); also called TbbAPRT1; source: Pichia pastoris strain smPP, purified (Ni-NTA, TEV cleavage, second Ni-NTA)

Assays:
APRT1 (TbbAPRT1) = target: T1, APRT1 (TbbAPRT1) (Trypanosoma brucei, UniProt Q57V32); experiment: coupled myokinase/pyruvate kinase/lactate dehydrogenase assay, NADH at […] nm; type: biochemical; settings: read-out: Apparent inhibition parameters^b
T1 construct: gene Tb07.43M14.180; full-length ORF, codon optimized, expressed in Pichia pastoris; His6/mCherry tag removed with TEV protease; homodimer
T1 sequence (Q57V32 1-235): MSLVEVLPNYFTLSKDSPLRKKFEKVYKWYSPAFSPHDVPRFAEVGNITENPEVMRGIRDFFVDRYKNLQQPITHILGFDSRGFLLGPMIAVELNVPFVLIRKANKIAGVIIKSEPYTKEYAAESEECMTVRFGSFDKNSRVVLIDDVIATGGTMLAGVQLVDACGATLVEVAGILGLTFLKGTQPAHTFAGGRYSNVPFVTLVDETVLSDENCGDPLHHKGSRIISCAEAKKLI

purified protein [1] = substrate: Nc1ncnc2nc[nH]c12; experiment: purified protein; type: biochemical, Trypanosoma brucei; settings: 100 mM HEPES pH 7.8, 25 mM MgCl2, room temperature
purified protein [2] = substrate: O=P(O)(O)OC[C@H]1O[C@H](OP(=O)(O)OP(=O)(O)O)[C@H](O)[C@@H]1O; experiment: purified protein; type: biochemical, Trypanosoma brucei; settings: varied PRPP (10-250 μM) at fixed adenine 1-20 μM, 100 mM HEPES pH 7.8, 25 mM MgCl2, room temperature
[3] = target: the molecule itself; experiment: cross-linking; dimethyl suberimidate (DMS) 8.7 mM, 0.2 M triethanolamine pH 8.5, purified APRT at 17.8, 35, 69 or 140 ug mL^-1, RT, 5-8 hours; 12% SDS-PAGE, Coomassie Blue
[4] = target: B1; experiment: cell-based or functional assay
[5] = target: the molecule itself; experiment: SEC; Superdex 200 Increase 10/300 GL; 200 uL of APRT1 at 13.8 mg mL^-1 or APRT2 at 10.8 mg mL^-1; 50 mM HEPES pH 7.8, 300 mM NaCl, 50 mM L-arginine, 50 mM L-glutamate; column calibrated with standards of 1,350 to 670,000 Da
[6] = kinetic dissociation constant from free enzyme, varied adenine (1.5-50 μM) at fixed PRPP 25-150 μM

Question: Which Ki (APRT1 (TbbAPRT1)) does the source give for `Nc1ncnc2cc[nH]c12` [9-deazaadenine] here?
Answer: 156 ± 21 µM

Question: How did the Km (purified protein [1]; [6]) turn out when B1 was run?
Answer: 2.2 ± 0.7 µM

Question: And the kcat (purified protein [1]; [6])?
Answer: 0.62 ± 0.02 s⁻¹

Question: And the Km (purified protein [2])?
Answer: 68 ± 11 µM

Question: And the kcat (purified protein [2])?
Answer: 0.61 ± 0.04 s⁻¹

Question: What about the kcat/Km (purified protein [2]) of the same molecule?
Answer: 9000 ± 1600 M⁻¹ s⁻¹

Question: And the “stoichiometry N” value [3]?
Answer: 2

B2: APRT2 (Trypanosoma brucei brucei TREU927) (protein)
chain: MSQYDAILTERHPHHFTLADTHPLAKELHANIFGESDLTHANCAHVYDISSLTEKPALFRKVIEFLKCRYETMGDTGPTHIIGVESRGYIIGAPLAVALGIPFVTARVTKRFPSSFVPEGDDLKYLPMSRSIRNDSIPPRARVLIVDDFIGTGSTMLAALRLADIVAAQVVEVLTVCDVASLGGIKIIRESDDEMFKETPIFTLIHFKLSPREAEEQLEFVNSYITRSRL
notes: full-length ORF, codon optimized, expressed in Pichia pastoris; N- or C-terminal His6/mCherry tag removed with TEV protease; weak dimer
Question: B2 was tested. Which Km (purified protein [1]; adenine 50-500 μM, 1 mM PRPP) did it give?
Answer: 253 ± 4 µM

Question: What about the kcat (purified protein [1]; adenine 50-500 μM, 1 mM PRPP) of the same molecule?
Answer: 0.003 ± 0.0002 s⁻¹

Question: What about the kcat/Km (purified protein [1]; adenine 50-500 μM, 1 mM PRPP) of the same molecule?
Answer: 12 ± 0.8 M⁻¹ s⁻¹

B3: APRT2 (Trypanosoma brucei brucei putative adenine phosphoribosyltransferase 2, Tb927.7.1790), expressed in P. pastoris, vector not told (natural protein, UniProt Q57V31 1-230, looked up)
chain: MSQYDAILTERHPHHFTLADTHPLAKELHANIFGESDLTHANCAHVYDISSLTEKPALFRKVIEFLKCRYETMGDTGPTHIIGVESRGYIIGAPLAVALGIPFVTARVTKRFPSSFVPEGDDLKYLPMSRSIRNDSIPPRARVLIVDDFIGTGSTMLAALRLADIVAAQVVEVLTVCDVASLGGIKIIRESDDEMFKETPIFTLIHFKLSPREAEEQLEFVNSYITRSRL
notes: APRT2 of Trypanosoma brucei brucei, Tb927.7.1790, UniProt Q57V31; the ORF, codon optimised for P. pastoris, cloned into a pPICZ vector; tags were removed with TEV protease; also called TbbAPRT2; source: Pichia pastoris strain smPP, purified (Ni-NTA, TEV cleavage, second Ni-NTA)
Question: Which results are given for B3?
Answer: fold decrease in AMP formation (APRT activity) of an equimolar mixture pre-incubated 4 hours on ice (100 nM APRT1: 100 nM APRT2) against 200 nM APRT1 alone and 100 nM APRT1 alone [4]: 2 fold; stoichiometry N [5]: 2

B4: APRT2-Ntag (Trypanosoma brucei brucei putative adenine phosphoribosyltransferase 2, Tb927.7.1790, expressed from pPICZ-Ntag) (natural protein, UniProt Q57V31 1-230, looked up)
chain: MSQYDAILTERHPHHFTLADTHPLAKELHANIFGESDLTHANCAHVYDISSLTEKPALFRKVIEFLKCRYETMGDTGPTHIIGVESRGYIIGAPLAVALGIPFVTARVTKRFPSSFVPEGDDLKYLPMSRSIRNDSIPPRARVLIVDDFIGTGSTMLAALRLADIVAAQVVEVLTVCDVASLGGIKIIRESDDEMFKETPIFTLIHFKLSPREAEEQLEFVNSYITRSRL
notes: APRT2 of Trypanosoma brucei brucei, Tb927.7.1790, UniProt Q57V31; the ORF, codon optimised for P. pastoris, cloned into pPICZ-Ntag; Tags removed with TEV protease; measured native-MS mass 25,860 Da (theoretical 25,853 Da); also called TbbAPRT2; source: Pichia pastoris strain smPP, purified (Ni-NTA, TEV cleavage, second Ni-NTA); not shown: His6, N-terminal, cleaved; mCherry, N-terminal, cleaved
Question: How did the “stoichiometry N” value [3] turn out when B4 was run?
Answer: 2

B5: APRT2-Ctag (Trypanosoma brucei brucei putative adenine phosphoribosyltransferase 2, Tb927.7.1790, expressed from pPICZ-Ctag) (natural protein, UniProt Q57V31 1-230, looked up)
chain: MSQYDAILTERHPHHFTLADTHPLAKELHANIFGESDLTHANCAHVYDISSLTEKPALFRKVIEFLKCRYETMGDTGPTHIIGVESRGYIIGAPLAVALGIPFVTARVTKRFPSSFVPEGDDLKYLPMSRSIRNDSIPPRARVLIVDDFIGTGSTMLAALRLADIVAAQVVEVLTVCDVASLGGIKIIRESDDEMFKETPIFTLIHFKLSPREAEEQLEFVNSYITRSRL
notes: APRT2 of Trypanosoma brucei brucei, Tb927.7.1790, UniProt Q57V31; the ORF, codon optimised for P. pastoris, cloned into pPICZ-Ctag; Tags removed with TEV protease; measured native-MS mass 26,637 Da (theoretical 26,647 Da), so residues of the TEV site are likely left at the C-terminus; also called TbbAPRT2; source: Pichia pastoris strain smPP, purified (Ni-NTA, TEV cleavage, second Ni-NTA); not …
Question: B5 was tested. Which “stoichiometry N” value [3] did it give?
Answer: 2
